Results reported in patent publication US20260297205 (published 2026).
Residue numbers refer to the chain shown, from its start.

Biological target: human growth hormone (GH) (human, UniProt P01241)
Assay: SPR, 20C

human growth hormone (GH), sequence (P01241 27-217): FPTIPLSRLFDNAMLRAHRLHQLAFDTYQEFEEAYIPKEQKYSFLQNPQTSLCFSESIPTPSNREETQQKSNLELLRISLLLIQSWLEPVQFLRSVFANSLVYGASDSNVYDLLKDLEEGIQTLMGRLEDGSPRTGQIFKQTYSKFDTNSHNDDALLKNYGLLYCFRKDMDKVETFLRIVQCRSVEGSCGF

B1: GH41 (antibody, V domains shown)
VH: EVQLVESGGGLVQPGGSLRLSCAASGFNFSSSSIHWVRQAPGKGLEWVASISPYSGYTSYADSVKGRFTISADTSKNTAYLQMNSLRAEDTAVYYCARGYGGWYWWYTFAFDYWGQGTLVTV
VL: DIQMTQSPSSLSASVGDRVTITCRASQSVSSAVAWYQQKPGKAPKLLIYSASSLYSGVPSRFSGSRSGTDFTLTISSLQPEDFATYYCQQSSSSELLTFGQGTKVEIKR
Binder B1 has a Kd of 2.6 nM.

B2: GH35 (antibody, V domains shown)
VH: EVQLVESGGGLVQPGGSLRLSCAASGFNVYYSSIHWVRQAPGKGLEWVASIYSYSGYTSYADSVKGRFTISADTSKNTAYLQMNSLRAEDTAVYYCARWSYKAMDYWGQGTLVTV
VL: DIQMTQSPSSLSASVGDRVTITCRASQSVSSAVAWYQQKPGKAPKLLIYSASSLYSGVPSRFSGSRSGTDFTLTISSLQPEDFATYYCQQDYYAPITFGQGTKVEIKR
B2 was tested, and the Kd was 14 nM.

B3: GH14 (antibody, V domains shown)
VH: EVQLVESGGGLVQPGGSLRLSCAASGFNFYSSSIHWVRQAPGKGLEWVASIYSYYGYTSYADSVKGRFTISADTSKNTAYLQMNSLRAEDTAVYYCARSGGYIGFDYWGQGTLVTV
VL: B2 VL with D91Y, Y92W, Y93E, A94Y, I96F
For B3, the Kd was 0.7 nM.

B4: GH6 (antibody, V domains shown)
VH: EVQLVESGGGLVQPGGSLRLSCAASGFNVSYSSIHWVRQAPGKGLEWVASIYSSYGYTSYADSVKGRFTISADTSKNTAYLQMNSLRAEDTAVYYCARGHGSMWAMDYWGQGTLVTV
VL: B2 VL with D91S, Y92W, Y93S, A94L, I96F
Work on B4 yielded a Kd of 0.04 nM.

B5: GH18 (antibody, V domains shown)
VH: B3 VH with S33Y, Y55S, S99Y, G100K, G101E, Y102P, I103F, F105M
VL: B2 VL with D91S, Y92N, A94M, I96L
Binder B5 has a Kd of 12.5 nM.

B6: GH33 (antibody, V domains shown)
VH: EVQLVESGGGLVQPGGSLRLSCAASGFNFYSSYIHWVRQAPGKGLEWVASIYSYSGYTSYADSVKGRFTISADTSKNTAYLQMNSLRAEDTAVYYCARYWYYYNGMDYWGQGTLVTV
VL: B2 VL with D91I, Y92R, A94V
With B6 the Kd was 5.8 nM.

B7: GH5 (antibody, V domains shown)
VH: B4 VH with Y31S, S32Y, S33Y, S54Y, H100D, G101N, S102Y, M103S
VL: B2 VL with D91S, Y92W, Y93Q, A94Y, I96F
For B7, the Kd was 4.9 nM.

B8: GH15 (antibody, V domains shown)
VH: B6 VH with F29V, Y30S, Y99T, W100S, Y102G, Y103R, N104G, G105A, M106L
VL: B2 VL with D91W, Y92S, Y93W, A94Y
For B8, the Kd was 3.9 nM.

B9: GH3 (antibody, V domains shown)
VH: B4 VH with Y31S, S50Y, Y52S, S54Y, G99E, H100G, G101W, S102Y, M103W
VL: B2 VL with D91A, Y92W, A94L
For B9, the Kd was 21 nM.

B10: GH23 (antibody, V domains shown)
VH: B2 VH with Y30S, Y31S, S33Y, W99F, S100W, Y101V, K102W
VL: B2 VL with D91S, Y92S, A94I, I96L
For B10, the Kd was 0.17 nM.

B11: GH4 (antibody, V domains shown)
VH: EVQLVESGGGLVQPGGSLRLSCAASGFNVSSSYIHWVRQAPGKGLEWVASIYSSYGYTSYADSVKGRFTISADTSKNTAYLQMNSLRAEDTAVYYCARESWGSGYYTWAMDYWGQGTLVTV
VL: B2 VL with D91S, Y92W, Y93R, A94Y, I96F
In the case of B11, the Kd is reported as 5.4 nM.

B12: GH25 (antibody, V domains shown)
VH: EVQLVESGGGLVQPGGSLRLSCAASGFNFSYYSIHWVRQAPGKGLEWVASISSYYGYTSYADSVKGRFTISADTSKNTAYLQMNSLRAEDTAVYYCARYFLGMDYWGQGTLVTV
VL: B2 VL with D91Y, Y92R, A94P
In the case of B12, the Kd is reported as 0.14 nM.

B13: GH16 (antibody, V domains shown)
VH: EVQLVESGGGLVQPGGSLRLSCAASGFNLSSYYIHWVRQAPGKGLEWVASIYPSYGYTSYADSVKGRFTISADTSKNTAYLQMNSLRAEDTAVYYCARWGKWYGYPFSGLDYWGQGTLVTV
VL: B2 VL with Y92W, A94F
Work on B13 yielded a Kd of 3.4 nM.

B14: GH10 (antibody, V domains shown)
VH: EVQLVESGGGLVQPGGSLRLSCAASGFNFYSSSIHWVRQAPGKGLEWVAYISPYSGYTSYADSVKGRFTISADTSKNTAYLQMNSLRAEDTAVYYCARIAYKWYMPYYYGMDYWGQGTLVTV
VL: B2 VL with D91S, Y92L, Y93S, A94S, P95L, I96V
Binder B14 has a Kd of 3.6 nM.

B15: GH11 (antibody, V domains shown)
VH: EVQLVESGGGLVQPGGSLRLSCAASGFNIYSSSIHWVRQAPGKGLEWVASISSSSGSTSYADSVKGRFTISADTSKNTAYLQMNSLRAEDTAVYYCARKYSGYYSNWYYPALDYWGQGTLVTV
VL: B2 VL with D91S, Y92S, Y93S, A94S, P95L
Work on B15 yielded a Kd of 0.3 nM.

B16: GH19 (antibody, V domains shown)
VH: B2 VH with V29F, Y30S, S33Y, W99Y, S100K, Y101W, K102W
VL: B2 VL with D91S, Y92G, Y93S, A94W
Binder B16 has a Kd of 5.9 nM.

B17: GH22 (antibody, V domains shown)
VH: B3 VH with Y30S, S33Y, Y55S, S99Y, G100R, G101F, Y102I, I103G, G104A, F105M
VL: B2 VL with D91S, Y92H, Y93W, A94S
B17 was tested, and the Kd was 1.1 nM.

B18: GH13 (antibody, V domains shown)
VH: EVQLVESGGGLVQPGGSLRLSCAASGFNFSSSSIHWVRQAPGKGLEWVASISSYYSSTYYADSVKGRFTISADTSKNTAYLQMNSLRAEDTAVYYCARQYTSPWHWYKAMDYWGQGTLVTV
VL: B2 VL with D91S, Y92S, Y93S, A94S, P95L
With B18 the Kd was 0.3 nM.

B19: GH38 (antibody, V domains shown)
VH: B11 VH with S30Y, Y33S, S53P, E99W, S100H, S103W, Y105S, T107G, A109G
VL: B2 VL with D91Q, Y92W, A94V
For B19, the Kd was 8.1 nM.

B20: GH1 (antibody, V domains shown)
VH: B3 VH with S31Y, S50Y, Y55S, S99Y, G100S, G101W, Y102W, I103G, F105M
VL: B2 VL with D91S, Y93S, A94V
With B20 the Kd was 1.5 nM.

B21: GH42 (antibody, V domains shown)
VH: EVQLVESGGGLVQPGGSLRLSCAASGFNFSSSYIHWVRQAPGKGLEWVASISSSSGSTSYADSVKGRFTISADTSKNTAYLQMNSLRAEDTAVYYCARSPWYVYWYFGSALDYWGQGTLVTV
VL: B2 VL with D91S, Y92S, Y93S, A94S, P95L
In the case of B21, the Kd is reported as 2.2 nM.

B22: GH21 (antibody, V domains shown)
VH: B2 VH with Y30S, Y31S, S33Y, W99Y, S100M, K102Y
VL: B2 VL with D91S, Y92S, Y93W, A94S
With B22 the Kd was 7.5 nM.

B23: GH2 (antibody, V domains shown)
VH: EVQLVESGGGLVQPGGSLRLSCAASGFNVSSSYIHWVRQAPGKGLEWVASIYSYYGYTSYADSVKGRFTISADTSKNTAYLQMNSLRAEDTAVYYCARENYGNWRSMYSGMDYWGQGTLVTV
VL: B2 VL with D91S, Y93F, A94L, I96F
In the case of B23, the Kd is reported as 0.9 nM.

B24: GH32 (antibody, V domains shown)
VH: B2 VH with V29F, Y31S, S33Y, W99Y, S100K, K102M, A103G
VL: B2 VL with D91S, Y92S, Y93W, A94M
B24 gave a Kd of 17 nM.

B25: GH34 (antibody, V domains shown)
VH: B2 VH with V29F, Y30S, S53P, Y54S, S55Y, W99Y, S100Y, K102F, A103G
VL: B2 VL with D91S, Y92W, Y93S, A94M, I96L
In the case of B25, the Kd is reported as 20 nM.

B26: GH24 (antibody, V domains shown)
VH: B4 VH with Y31S, H100D, G101R, S102Y, M103V
VL: B2 VL with D91S, Y92S, Y93S, A94Y, I96F
For B26, the Kd was 1.3 nM.

B27: GH12 (antibody, V domains shown)
VH: EVQLVESGGGLVQPGGSLRLSCAASGFNLSSSYIHWVRQAPGKGLEWVASIYPYSGYTSYADSVKGRFTISADTSKNTAYLQMNSLRAEDTAVYYCARMYWTGALDYWGQGTLVTV
VL: B2 VL with D91S, Y92S, A94S
B27 gave a Kd of 0.08 nM.

B28: GH20 (antibody, V domains shown)
VH: B2 VH with Y30S, Y31S, S33Y, W99Y, S100K, Y101W, K102Y
VL: B2 VL with D91S, Y92S, Y93W, A94Y
With B28 the Kd was 1.9 nM.

B29: GH7 (antibody, V domains shown)
VH: B6 VH with F29V, Y33S, Y99G, W100R, Y102S, Y103W, N104F, G105A, M106L
VL: B2 VL with D91Y, Y92W, Y93S, A94F
In the case of B29, the Kd is reported as 6.1 nM.

B30: GH9 (antibody, V domains shown)
VH: B2 VH with Y31S, S33Y, W99H, Y101S, K102W
VL: B2 VL with D91S, Y92S, Y93F, A94V, I96L
B30 showed a Kd of 18 nM.
